In paper PMC9384988, “The TPR domain of PgaA is a multifunctional scaffold that binds PNAG and modulates PgaB-dependent polymer processing” (PLoS Pathogens, 2022):

Key:
His-PgaA (PgaA-32-807) [1] = target: T1, His-PgaA (PgaA-32-807) (E. coli K-12, UniProt P69434 32-807)
T1 construct: also called His-PgaA-32-807; full-length PgaA; source: E. coli BL21: co-expressed with PgaB, in DDM extract of the lysate pellet (pull-down); expressed alone or with PgaB and purified (NiNTA, gel filtration, DDM); not shown: His6, N-terminal, kept
T1 sequence (looked up): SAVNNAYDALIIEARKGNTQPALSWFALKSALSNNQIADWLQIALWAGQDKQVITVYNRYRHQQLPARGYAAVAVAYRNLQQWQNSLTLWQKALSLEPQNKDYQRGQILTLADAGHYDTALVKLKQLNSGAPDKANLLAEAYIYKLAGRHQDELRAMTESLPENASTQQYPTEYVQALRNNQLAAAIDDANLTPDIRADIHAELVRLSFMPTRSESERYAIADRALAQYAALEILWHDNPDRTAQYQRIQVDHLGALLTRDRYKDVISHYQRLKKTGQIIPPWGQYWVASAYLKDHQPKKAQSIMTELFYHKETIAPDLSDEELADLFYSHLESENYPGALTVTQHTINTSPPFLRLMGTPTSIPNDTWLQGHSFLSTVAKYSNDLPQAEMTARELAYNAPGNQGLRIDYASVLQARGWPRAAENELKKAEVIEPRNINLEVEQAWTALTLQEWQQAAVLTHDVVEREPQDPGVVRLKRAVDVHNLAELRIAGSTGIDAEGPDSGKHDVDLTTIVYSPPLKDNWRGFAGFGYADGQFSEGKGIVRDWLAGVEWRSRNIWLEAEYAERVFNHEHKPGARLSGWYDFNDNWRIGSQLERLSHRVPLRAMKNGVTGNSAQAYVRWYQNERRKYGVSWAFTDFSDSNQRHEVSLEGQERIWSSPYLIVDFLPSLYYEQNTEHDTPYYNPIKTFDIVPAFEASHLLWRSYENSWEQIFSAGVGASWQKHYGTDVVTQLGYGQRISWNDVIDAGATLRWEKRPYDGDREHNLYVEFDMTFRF

PgaA-220-367 = target: T2, PgaA-220-367 (Escherichia coli, UniProt P69434); test: Tryptophan quenching, wild-type PgaA-220-367; type: binding, E. coli; conditions: substrate concentration 4.5 mM
T2 construct: His6 (thrombin cleavable, pET28) (N); made in house; host or cells: E. coli BL21 CodonPlus (DE3)
T2 sequence (P69434 220-367): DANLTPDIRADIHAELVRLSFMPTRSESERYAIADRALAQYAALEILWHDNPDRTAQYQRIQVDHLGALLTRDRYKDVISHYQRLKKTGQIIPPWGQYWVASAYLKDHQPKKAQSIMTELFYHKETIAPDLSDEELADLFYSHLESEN
Method: Fluorescence measurements were carried out at 20°C in a quartz cuvette (type no. 115F-QS; Hellma Analytics) using a PTI QuantaMaster 80 steady-state fluorometer (Photon Technology International), with a 4-nm bandwidth for both excitation and emission and a speed of 2 nm/s. Fluorescence spectra were collected between 300 nm and 400 nm with an excitation wavelength of 280 nm and a peak emission wavelength of 334 nm. All samples were prepared in triplicates 10 minutes ahead of the collection in a solution containing 1 μM protein, 20 mM Tris buffer pH 8.0, 150 mM sodium chloride and 1 mM concentrations of dPNAG oligomers. Data measured for each sample was corrected for ligand fluorescence and inner filter effect. […] To obtain an approximate binding affinity the dPNAG oligomer concentration was varied between 0–10 mM.

His-PgaA (PgaA-32-807) [2] = target: T1, His-PgaA (PgaA-32-807); test: co-purification (NiNTA, gel filtration) with SDS-PAGE; His-PgaA and PgaB constructs co-expressed in BL21, extracted with 1% DDM, purified by NiNTA and gel filtration (20 mM Tris pH 8, 150 mM NaCl, 0.1% DDM); Coomassie gel of the purified complexes; conditions: partners not purified
[3] = test system: Staphylococcus epidermidis strain SE801 biofilms; test: Crystal violet-based biofilm disruption assay (glycoside hydrolase activity); type: cell-based; conditions: S. epidermidis SE801 biofilm, 2 h, lower EC50 = higher glycoside hydrolase activity
Method: To determine whether the modulation of enzyme activity might be a common theme for the TPR domain across synthase-dependent systems, we assayed the deacetylase and glycoside hydrolase activities of PgaB in the presence and absence of PgaA. As we used co-expression to obtain the complexes, a SDS PAGE gel of the purified solutions of PgaA, PgaB and PgaA/B complexes was analyzed to ensure that equal quantities of the protein/protein complex were used (Fig 2A). Consistent with previous published studies, PgaA and PgaB appear to form a 1:1 complex. The deacetylase activity was assessed using a fluorescamine-based assay with fully acetylated PNAG hexamers as the substrate. As fluorescamine detects the presence of primary amines, which are generated during the deacetylation of the PNAG oligosaccharide, this assay provides a direct readout of the deacetylation activity of PgaB. […] After a further 2 h, the reaction was quenched, plates washes and the amount of adherent biofilm remaining quantified using crystal violet staining. […]
Cultures of S. epidermidis clinical isolate SE801 were grown overnight at 37°C with shaking at 200 rpm in LB broth without antibiotics. […] The remaining dye was solubilized with 100 μl of 95% (v/v) ethanol for 10 min with rotation, after which time the absorbance was measured at 595 nm.

[4] = Fluorescamine de-acetylation assay; type: biochemical; conditions: 30 μM enzyme and 30 mM PNAG hexamer; fluorescamine readout
Method: To determine whether the modulation of enzyme activity might be a common theme for the TPR domain across synthase-dependent systems, we assayed the deacetylase and glycoside hydrolase activities of PgaB in the presence and absence of PgaA. As we used co-expression to obtain the complexes, a SDS PAGE gel of the purified solutions of PgaA, PgaB and PgaA/B complexes was analyzed to ensure that equal quantities of the protein/protein complex were used (Fig 2A). Consistent with previous published studies, PgaA and PgaB appear to form a 1:1 complex. The deacetylase activity was assessed using a fluorescamine-based assay with fully acetylated PNAG hexamers as the substrate. As fluorescamine detects the presence of primary amines, which are generated during the deacetylation of the PNAG oligosaccharide, this assay provides a direct readout of the deacetylation activity of PgaB. To assess the glycoside hydrolase activity, we used a biofilm disruption assay, which has been used previously to characterize PgaB’s glycosidase activity. In this assay, biofilms of Staphylococcus epidermidis strain SE801 were grown in 96 well plates for 24 h, at which point PgaB was added. After a further 2 h, the reaction was quenched, plates washes and the amount of adherent biofilm remaining quantified using crystal violet staining. […]

Work on “PgaB-22-672 (soluble form of PgaB) (from UniProt P75906 22-672) (enzyme)” yielded a fluorescamine-based deacetylation assay with PNAG hexamer, concentration of GlcN produced (PgaA+B, individually purified and mixed) (His-PgaA (PgaA-32-807) [1]) of 1290 µM.

For chitin, the “quenching of the signal at 334nm” value (PgaA-220-367) was 9%.

B1: PgaB (PgaB-1-672) (enzyme, E. coli, UniProt P75906 21-672, looked up)
chain: CISQSRTSFIPPQDRESLLAEQPWPHNGFVAISWHNVEDEAADQRFMSVRTSALREQFAWLRENGYQPVSIAQIREAHRGGKPLPEKAVVLTFDDGYQSFYTRVFPILQAFQWPAVWAPVGSWVDTPADKQVKFGDELVDREYFATWQQVREVARSRLVELASHTWNSHYGIQANATGSLLPVYVNRAYFTDHARYETAAEYRERIRLDAVKMTEYLRTKVEVNPHVFVWPYGEANGIAIEELKKLGYDMFFTLESGLANASQLDSIPRVLIANNPSLKEFAQQIITVQEKSPQRIMHIDLDYVYDENLQQMDRNIDVLIQRVKDMQISTVYLQAFADPDGDGLVKEVWFPNRLLPMKADIFSRVAWQLRTRSGVNIYAWMPVLSWDLDPTLTRVKYLPTGEKKAQIHPEQYHRLSPFDDRVRAQVGMLYEDLAGHAAFDGILFHDDALLSDYEDASAPAITAYQQAGFSGSLSEIRQNPEQFKQWARFKSRALTDFTLELSARVKAIRGPHIKTARNIFALPVIQPESEAWFAQNYADFLKSYDWTAIMAMPYLEGVAEKSADQWLIQLTNQIKNIPQAKDKSILELQAQNWQKNGQHQAISSQQLAHWMSLLQLNGVKNYGYYPDNFLHNQPEIDLIRPEFSTAWYPKND
modifications: C21 lipidated (residues 1-20 are a signal sequence that is cleaved during periplasmic targeting)
notes: signal peptide in the construct; Untagged; also called full-length PgaB; untagged PgaB; source: E. coli BL21: co-expressed with His-PgaA constructs, in DDM extract or co-purified; also separately expressed, cell pellet mixed with the PgaA pellet before lysis
For B1, the “stoichiometry N” value (His-PgaA (PgaA-32-807) [2]) was 1.

B2: PgaB: soluble E. coli PgaB residues 22–672, de-N-acetylase and glycoside hydrolase (protein)
chain: CISQSRTSFIPPQDRESLLAEQPWPHNGFVAISWHNVEDEAADQRFMSVRTSALREQFAWLRENGYQPVSIAQIREAHRGGKPLPEKAVVLTFDDGYQSFYTRVFPILQAFQWPAVWAPVGSWVDTPADKQVKFGDELVDREYFATWQQVREVARSRLVELASHTWNSHYGIQANATGSLLPVYVNRAYFTDHARYETAAEYRERIRLDAVKMTEYLRTKVEVNPHVFVWPYGEANGIAIEELKKLGYDMFFTLESGLANASQLDSIPRVLIANNPSLKEFAQQIITVQEKSPQRIMHIDLDYVYDENLQQMDRNIDVLIQRVKDMQISTVYLQAFADPDGDGLVKEVWFPNRLLPMKADIFSRVAWQLRTRSGVNIYAWMPVLSWDLDPTLTRVKYLPTGEKKAQIHPEQYHRLSPFDDRVRAQVGMLYEDLAGHAAFDGILFHDDALLSDYEDASAPAITAYQQAGFSGSLSEIRQNPEQFKQWARFKSRALTDFTLELSARVKAIRGPHIKTARNIFALPVIQPESEAWFAQNYADFLKSYDWTAIMAMPYLEGVAEKSADQWLIQLTNQIKNIPQAKDKSILELQAQNWQKNGQHQAISSQQLAHWMSLLQLNGVKNYGYYPDNFLHNQPEIDLIRPEFSTAWYPKND
modifications: C21 lipidated (residues 1-20 are a signal sequence that is cleaved during periplasmic targeting)
notes: soluble E. coli PgaB residues 22–672, de-N-acetylase and glycoside hydrolase
In the case of B2, the EC50 [3] is reported as 302 ± 82.3 nM and the “concentration of GlcN produced” value [4] is reported as 988.6 ± 104.7 µM.
